Measured values from patent US20060057669A1, “Inactive transcription factor tif-ia and uses thereof” (priority 2002, published 2006).

B1: UBF: basal Pol I transcription initiation factor, FLAG-tagged UBF1 purified from Sf9 cells (protein, UniProt P17480 1-764, looked up)
Nucleolar transcription …: MNGEADCPTDLEMAAPKGQDRWSQEDMLTLLECMKNNLPSNDSSKFKTTESHMDWEKVAFKDFSGDMCKLKWVEISNEVRKFRTLTELILDAQEHVKNPYKGKKLKKHPDFPKKPLTPYFRFFMEKRAKYAKLHPEMSNLDLTKILSKKYKELPEKKKMKYIQDFQREKQEFERNLARFREDHPDLIQNAKKSDIPEKPKTPQQLWYTHEKKVYLKVRPDATTKEVKDSLGKQWSQLSDKKRLKWIHKALEQRKEYEEIMRDYIQKHPELNISEEGITKSTLTKAERQLKDKFDGRPTKPPPNSYSLYCAELMANMKDVPSTERMVLCSQQWKLLSQKEKDAYHKKCDQKKKDYEVELLRFLESLPEEEQQRVLGEEKMLNINKKQATSPASKKPAQEGGKGGSEKPKRPVSAMFIFSEEKRRQLQEERPELSESELTRLLARMWNDLSEKKKAKYKAREAALKAQSERKPGGEREERGKLPESPKRAEEIWQQSVIGDYLARFKNDRVKALKAMEMTWNNMEKKEKLMWIKKAAEDQKRYERELSEMRAPPAATNSSKKMKFQGEPKKPPMNGYQKFSQELLSNGELNHLPLKERMVEIGSRWQRISQSQKEHYKKLAEEQQKQYKVHLDLWVKSLSPQDRAAYKEYISNKRKSMTKLRGPNPKSSRTTLQSKSESEEDDEEDEDDEDEDEEEEDDENGDSSEDGGDSSESSSEDESEDGDENEEDDEDEDDDEDDDEDEDNESEGSSSSSSSSGDSSDSDSN
modifications: UBF1 FLAG tag
notes: basal Pol I transcription initiation factor, FLAG-tagged UBF1 purified from Sf9 cells
B2: GST/TIF-IA409-651: GST fusion of the C-terminal part of TIF-IA containing aa 410-651 (protein, UniProt Q9NYV6 410-651, looked up, fragment)
chain: FLARAKFIPLITVKSCLDLLVNWLHIYLNNQDSGTKAFCDVALHGPFYSACQAVFYTFVFRHKQLLSGNLKEGLQYLQSLNFERIVMSQLNPLKICLPSVVNFFAAITNKYQLVFCYTIIERNNRQMLPVIRSTAGGDSVQICTNPLDTFFPFDPCVLKRSKKFIDPIYQVWEDMSAEELQEFKKPMKKDIVEDEDDDFLKGEVPQNDTVIGITPSSFDTHFRSPSSSVGSPPVLYMQPSPL
modifications: GST fusion
B3: GST/TIF-IA409-632: GST fusion of a TIF-IA C-terminal fragment lacking amino acids 633-651 (protein, UniProt Q9NYV6 409-632, looked up, fragment)
chain: SFLARAKFIPLITVKSCLDLLVNWLHIYLNNQDSGTKAFCDVALHGPFYSACQAVFYTFVFRHKQLLSGNLKEGLQYLQSLNFERIVMSQLNPLKICLPSVVNFFAAITNKYQLVFCYTIIERNNRQMLPVIRSTAGGDSVQICTNPLDTFFPFDPCVLKRSKKFIDPIYQVWEDMSAEELQEFKKPMKKDIVEDEDDDFLKGEVPQNDTVIGITPSSFDTHFR
modifications: GST fusion

What was measured:
Assay type in all cases: biochemical
[1] = test system: Pol I transcription; assay: Complementation of Pol I transcription in nuclear extracts from rapamycin-treated FM3A cells
Procedure: (B) Complementation of transcriptional activity in nuclear extracts from rapamycin-treated cells. Transcription reactions contained nuclear extracts (30 μg) from untreated (NE) or rapamycin-treated (NERapa) FM3A cells. In lanes 3-7, fractions containing partially purified Pol I transcription factors were added to NERapa-containing reactions.
(C) TIF-IA activates transcription in nuclear extracts form rapamycin-treated cells. Reactions were complemented with either 1 μl (lanes 2 and 5) of cellular TIF-IA (PL-650 fraction) or 20 ng (lanes 3 and 6) of immunopurified recombinant TIF-IA that has been expressed in SF9 cells.
(A) mTOR rescues transcription in vitro. Pol I transcription was assayed in nuclear extracts from rapamycin-treated FM3A cells. Reactions were supplemented with 50 ng TIF-IA (lane 1) or 10 ng, 20 ng and 30 ng of HA-mTOR (lanes 3-5).
(B) S6K1 activates Pol I transcription in extracts from rapamycin-treated cells. NERapa was supplemented with 50 ng TIF-IA (lane 1) or 100, 150 and 200 ng of GST-S6K1 (lanes 3-5) or GST-S6K1dd (lanes 6-8).
(§1) Nuclear extracts were prepared from exponentially growing (8×10^5 cells/ml), density-arrested or PD98059-treated (CN Bioscience, Bad Soden, Germany) 40 μM, 0.5 hr) or rapamycin-treated FM3A cells (ATCC, Manassas, USA). 25 μl assays contained 50 ng of template DNA (pMr600/EcoRI), 30 μg nuclear extract proteins and 12 mM Hepes-KOH, [pH8.0], 0.1 mM EDTA, 5 mM MgCl2, 80 mM KCl, 10 mM creatine phosphate, 12% (v/v) glycerol, 0.66 mM each of ATP, GTP and CTP, 0.01 mM UTP and 0.5 μCi [α-^32P]UTP (5000 Ci/mmol). After incubation for 60 min at 30° C., RNA was extracted and analyzed on non-denaturing 5% polyacrylamide gels
mTOR and S6K1 were purified from HEK293T cells overexpressing HA-tagged mTOR or GST/myc-tagged S6K1, respectively. 5×10^6 cells were lysed in 0.8 ml IP buffer, centrifuged at 10,000×g for 20 min, and the supernatants were incubated for 4 hr at 4° C. with either 15 μg anti-HA antibodies bound to 20 μl protein G-agarose (for HA-mTOR) or 20 μl packed GST-glutathione beads (for GST-myc-S6K1). […]

[2] = test system: Pol I transcription; assay: Complementation of Pol I transcription in nuclear extracts from PD98059-treated FM3A cells; details: standard transcription system containing ATP and GTP
Procedure: (C) TIF-IA, but not UBF, rescues Pol I transcription in extracts from PD98059-treated cells. Nuclear extracts from untreated or PD98059-treated FM3A cells were supplemented with 20 and 40 ng of purified TIF-IA and/or UBF (10 ng in lanes 7 and 9, 50 ng in lanes 3, 8 and 10).
(D) TIF-IA activates transcription in extracts from PD98059-treated cells in the presence of AMP-PNP and GMP-PNP. Nuclear extracts from PD98059-treated FM3A cells were supplemented with 40 ng of purified TIF-IA and assayed in the standard transcription system containing ATP and GTP (ATP, lanes 1, 2) or AMP-PNP and GMP-PNP (AMP-PNP, lanes 3, 4)
(D) ERK/RSK-dependent phosphorylation activates Pol I transcription in vitro. Nuclear extracts from PD98059-treated FM3A cells were supplemented with 40 ng of TIF-IA, 10 ng of HA-RSK, or 10 ng of HA-ERK as indicated, and transcriptional activity was assayed in the standard transcription system containing ATP and GTP (lanes 4-8) or AMP-PNP and GMP-PNP (lanes 9-13).
as §1
To test whether both TIF-IA and UBF, or TIF-IA alone, were targeted by ERK-mediated phosphorylation, nuclear extracts from untreated and PD98059-treated cells were assayed for rDNA transcription in the absence and presence of exogenous TIF-IA or UBF (FIG. 2C). If both UBF and TIF-IA were inactivated by PD98059, rescue of Pol I transcriptional activity would require both factors, whereas TIF-IA alone would be sufficient if it was the only factor that is inactivated by inhibition of the ERK pathway. […]

[3] = target: T1, RSK2 (Mus musculus, UniProt P18654, A376E/A378E/F387I/G384D/H379Q/INS385D/L381M/N377E/Q380E/S369E/S386Y/T365E); assay: In vitro kinase assay with immunopurified RSK2
T1 construct: made in house; host or cells: HEK293T (kinase, immunopurified via HA); E. coli BL21(DE3) (GST substrate)
Procedure: (A) Tryptic peptide maps of recombinant TIF-IA phosphorylated by RSK2 in vitro. GST/TIF-IA409-651 was phosphorylated with HA-RSK-CA in vitro and the phosphopeptide pattern was compared with that of wild-type TIF-IA and TIF-IA1-632 labeled in vivo.
HA-tagged ERK1/2 or RSK2-CA was overexpressed in HEK293T cells, immunopurified and immobilized to protein G agarose. After stringent washing, the beads were suspended in 20 μl of 1.5× kinase assay buffer (75 mM Tris-HCl [pH 8.0], 15 mM MgCl2, 1.5 mM DTT, 5% glycerol) and assayed for activity. 30 μl reactions contained 100 μM ATP, 0.2 μCi of […] (5000 Ci/mmol), 0.5-1 μg S6 peptide (RRSSLRA) or GST/TIF-IA (Yuan et al. EMBO Reports 3 (2002) 1082-1087) and 10 fmoles RSK. After incubation for 30 min at 30° C., 5 μl of the supernatants were spotted onto phosphocellulose paper (Whatman p81), washed with 150 mM orthophosphoric acid and quantified with a PhosphorImager (Molecular Dynamics, Inc.). Alternatively, labeled GST/TIF-IA was subjected to SDS-PAGE, blotted onto nitrocellulose, digested with trypsin and analyzed by two-dimensional phosphopeptide mapping.
Phosphoamino acid analysis has established that TIF-IA is exclusively phosphorylated on serine residues (data not shown). The C-terminal tryptic peptide of TIF-IA contains three S—P sites (FIG. 4B, upper panel), a known target motif for MAPKs. […]

T1 sequence (P18654 with tags, fused parts or gaps with the stated changes): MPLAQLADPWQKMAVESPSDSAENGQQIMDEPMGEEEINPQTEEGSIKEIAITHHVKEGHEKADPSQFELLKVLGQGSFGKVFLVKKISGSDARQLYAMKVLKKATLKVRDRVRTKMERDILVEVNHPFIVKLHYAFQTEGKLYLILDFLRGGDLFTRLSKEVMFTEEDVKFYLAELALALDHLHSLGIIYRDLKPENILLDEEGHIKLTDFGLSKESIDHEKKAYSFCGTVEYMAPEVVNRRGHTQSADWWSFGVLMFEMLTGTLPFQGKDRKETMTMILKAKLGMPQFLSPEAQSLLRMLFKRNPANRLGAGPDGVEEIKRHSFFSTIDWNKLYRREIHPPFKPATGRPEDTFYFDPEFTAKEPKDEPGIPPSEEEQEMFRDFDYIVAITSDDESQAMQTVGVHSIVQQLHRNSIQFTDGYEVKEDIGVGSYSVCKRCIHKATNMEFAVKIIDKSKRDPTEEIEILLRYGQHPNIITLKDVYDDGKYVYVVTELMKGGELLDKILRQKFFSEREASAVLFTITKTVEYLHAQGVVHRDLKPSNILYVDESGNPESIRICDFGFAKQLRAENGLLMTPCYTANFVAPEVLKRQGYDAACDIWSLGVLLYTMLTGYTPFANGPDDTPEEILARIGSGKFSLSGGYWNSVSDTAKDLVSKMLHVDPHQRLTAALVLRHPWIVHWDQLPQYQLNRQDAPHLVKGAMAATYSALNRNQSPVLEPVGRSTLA

Molecule | phosphorylation by RSK2 in vitro [3] | further results
S6K1: GST/myc-tagged S6 kinase purified from HEK293T cells |  | rescue of Pol I transcription in extracts from rapamycin-treated cells [1]: activated Pol I transcription to an extent that compared to that of exogenous TIF-IA
B1 |  | rescue of Pol I transcription in extracts from PD98059-treated cells [2]: had no effect
B2 | efficiently phosphorylated | 
B3 | not phosphorylated | 
